# Molecular target: the molecule itself
# Assay: SEC; Superose 6 Increase 10/300 GL, 4 °C; MalT pre-incubated at 20 °C for 20 min in buffer I; run in buffer E with 1 mM maltotriose and 0.4 mM ATP; self-association of MalT
row,Protein,binding result
1,"MalT-E140A, N-terminally His-tagged (natural protein, Escherichia coli, UniProt P06993 1-901, looked up, MalT of Escherichia coli, variant of plasmid pOM206 made by site-directed mutagenesis; source: E. coli BL21 (DE3) ΔmalT220, purified (Ni Sepharose, gel filtration)) MLIPSKLSRPVRLDHTVVRERLLAKLSGANNFRLALITSPAGYGKTTLISQWAAGKNDIGWYSLDEGDNQQERFASYLIAAVQQATNGHCAICETMAQKRQYASLTSLFAQLFIELAEWHSPLYLVIDDYHLITNPVIHASMRFFIRHQPENLTLVVLSRNLPQLGIANLRVRDQLLEIGSQQLAFTHQEAKQFFDCRLSSPIEAAESSRICDDVSGWATALQLIALSARQNTHSAHKSARRLAGINASHLSDYLVDEVLDNVDLATRHFLLKSAILRSMNDALITRVTGEENGQMRLEEIERQGLFLQRMDDTGEWFCYHPLFGNFLRQRCQWELAAELPEIHRAAAESWMAQGFPSEAIHHALAAGDALMLRDILLNHAWSLFNHSELSLLEESLKALPWDSLLENPQLVLLQAWLMQSQHRYGEVNTLLARAEHEIKDIREDTMHAEFNALRAQVAINDGNPDEAERLAKLALEELPPGWFYSRIVATSVLGEVLHCKGELTRSLALMQQTEQMARQHDVWHYALWSLIQQSEILFAQGFLQTAWETQEKAFQLINEQHLEQLPMHEFLVRIRAQLLWAWARLDEAEASARSGIEVLSSYQPQQQLQCLAMLIQCSLARGDLDNARSQLNRLENLLGNGKYHSDWISNANKVRVIYWQMTGDKAAAANWLRHTAKPEFANNHFLQGQWRNIARAQILLGEFEPAEIVLEELNENARSLRLMSDLNRNLLLLNQLYWQAGRKSDAQRVLLDALKLANRTGFISHFVIEGEAMAQQLRQLIQLNTLPELEQHRAQRILREINQHHRHKFAHFDENFVERLLNHPEVPELIRTSPLTQREWQVLGLIYSGYSNEQIAGELEVAATTIKTHIRNLYQKLGVAHRQDAVQHAQQLLKMMGYGV",binds
2,"MalT-N169A, N-terminally His-tagged (natural protein, Escherichia coli, UniProt P06993 1-901, looked up, MalT of Escherichia coli, variant of plasmid pOM206 made by site-directed mutagenesis; source: E. coli BL21 (DE3) ΔmalT220, purified (Ni Sepharose, gel filtration)) MLIPSKLSRPVRLDHTVVRERLLAKLSGANNFRLALITSPAGYGKTTLISQWAAGKNDIGWYSLDEGDNQQERFASYLIAAVQQATNGHCAICETMAQKRQYASLTSLFAQLFIELAEWHSPLYLVIDDYHLITNPVIHESMRFFIRHQPENLTLVVLSRNLPQLGIAALRVRDQLLEIGSQQLAFTHQEAKQFFDCRLSSPIEAAESSRICDDVSGWATALQLIALSARQNTHSAHKSARRLAGINASHLSDYLVDEVLDNVDLATRHFLLKSAILRSMNDALITRVTGEENGQMRLEEIERQGLFLQRMDDTGEWFCYHPLFGNFLRQRCQWELAAELPEIHRAAAESWMAQGFPSEAIHHALAAGDALMLRDILLNHAWSLFNHSELSLLEESLKALPWDSLLENPQLVLLQAWLMQSQHRYGEVNTLLARAEHEIKDIREDTMHAEFNALRAQVAINDGNPDEAERLAKLALEELPPGWFYSRIVATSVLGEVLHCKGELTRSLALMQQTEQMARQHDVWHYALWSLIQQSEILFAQGFLQTAWETQEKAFQLINEQHLEQLPMHEFLVRIRAQLLWAWARLDEAEASARSGIEVLSSYQPQQQLQCLAMLIQCSLARGDLDNARSQLNRLENLLGNGKYHSDWISNANKVRVIYWQMTGDKAAAANWLRHTAKPEFANNHFLQGQWRNIARAQILLGEFEPAEIVLEELNENARSLRLMSDLNRNLLLLNQLYWQAGRKSDAQRVLLDALKLANRTGFISHFVIEGEAMAQQLRQLIQLNTLPELEQHRAQRILREINQHHRHKFAHFDENFVERLLNHPEVPELIRTSPLTQREWQVLGLIYSGYSNEQIAGELEVAATTIKTHIRNLYQKLGVAHRQDAVQHAQQLLKMMGYGV",binds
3,"MalT-R143A, N-terminally His-tagged (natural protein, Escherichia coli, UniProt P06993 1-901, looked up, MalT of Escherichia coli, variant of plasmid pOM206 made by site-directed mutagenesis; source: E. coli BL21 (DE3) ΔmalT220, purified (Ni Sepharose, gel filtration)) MLIPSKLSRPVRLDHTVVRERLLAKLSGANNFRLALITSPAGYGKTTLISQWAAGKNDIGWYSLDEGDNQQERFASYLIAAVQQATNGHCAICETMAQKRQYASLTSLFAQLFIELAEWHSPLYLVIDDYHLITNPVIHESMAFFIRHQPENLTLVVLSRNLPQLGIANLRVRDQLLEIGSQQLAFTHQEAKQFFDCRLSSPIEAAESSRICDDVSGWATALQLIALSARQNTHSAHKSARRLAGINASHLSDYLVDEVLDNVDLATRHFLLKSAILRSMNDALITRVTGEENGQMRLEEIERQGLFLQRMDDTGEWFCYHPLFGNFLRQRCQWELAAELPEIHRAAAESWMAQGFPSEAIHHALAAGDALMLRDILLNHAWSLFNHSELSLLEESLKALPWDSLLENPQLVLLQAWLMQSQHRYGEVNTLLARAEHEIKDIREDTMHAEFNALRAQVAINDGNPDEAERLAKLALEELPPGWFYSRIVATSVLGEVLHCKGELTRSLALMQQTEQMARQHDVWHYALWSLIQQSEILFAQGFLQTAWETQEKAFQLINEQHLEQLPMHEFLVRIRAQLLWAWARLDEAEASARSGIEVLSSYQPQQQLQCLAMLIQCSLARGDLDNARSQLNRLENLLGNGKYHSDWISNANKVRVIYWQMTGDKAAAANWLRHTAKPEFANNHFLQGQWRNIARAQILLGEFEPAEIVLEELNENARSLRLMSDLNRNLLLLNQLYWQAGRKSDAQRVLLDALKLANRTGFISHFVIEGEAMAQQLRQLIQLNTLPELEQHRAQRILREINQHHRHKFAHFDENFVERLLNHPEVPELIRTSPLTQREWQVLGLIYSGYSNEQIAGELEVAATTIKTHIRNLYQKLGVAHRQDAVQHAQQLLKMMGYGV",binds
4,"MalT-R173A, N-terminally His-tagged (natural protein, Escherichia coli, UniProt P06993 1-901, looked up, MalT of Escherichia coli, variant of plasmid pOM206 made by site-directed mutagenesis; source: E. coli BL21 (DE3) ΔmalT220, purified (Ni Sepharose, gel filtration)) MLIPSKLSRPVRLDHTVVRERLLAKLSGANNFRLALITSPAGYGKTTLISQWAAGKNDIGWYSLDEGDNQQERFASYLIAAVQQATNGHCAICETMAQKRQYASLTSLFAQLFIELAEWHSPLYLVIDDYHLITNPVIHESMRFFIRHQPENLTLVVLSRNLPQLGIANLRVADQLLEIGSQQLAFTHQEAKQFFDCRLSSPIEAAESSRICDDVSGWATALQLIALSARQNTHSAHKSARRLAGINASHLSDYLVDEVLDNVDLATRHFLLKSAILRSMNDALITRVTGEENGQMRLEEIERQGLFLQRMDDTGEWFCYHPLFGNFLRQRCQWELAAELPEIHRAAAESWMAQGFPSEAIHHALAAGDALMLRDILLNHAWSLFNHSELSLLEESLKALPWDSLLENPQLVLLQAWLMQSQHRYGEVNTLLARAEHEIKDIREDTMHAEFNALRAQVAINDGNPDEAERLAKLALEELPPGWFYSRIVATSVLGEVLHCKGELTRSLALMQQTEQMARQHDVWHYALWSLIQQSEILFAQGFLQTAWETQEKAFQLINEQHLEQLPMHEFLVRIRAQLLWAWARLDEAEASARSGIEVLSSYQPQQQLQCLAMLIQCSLARGDLDNARSQLNRLENLLGNGKYHSDWISNANKVRVIYWQMTGDKAAAANWLRHTAKPEFANNHFLQGQWRNIARAQILLGEFEPAEIVLEELNENARSLRLMSDLNRNLLLLNQLYWQAGRKSDAQRVLLDALKLANRTGFISHFVIEGEAMAQQLRQLIQLNTLPELEQHRAQRILREINQHHRHKFAHFDENFVERLLNHPEVPELIRTSPLTQREWQVLGLIYSGYSNEQIAGELEVAATTIKTHIRNLYQKLGVAHRQDAVQHAQQLLKMMGYGV",binds
5,"MalT-S5L, N-terminally His-tagged (natural protein, Escherichia coli, UniProt P06993 1-901, looked up, MalT of Escherichia coli, variant of plasmid pOM206 made by site-directed mutagenesis; source: E. coli BL21 (DE3) ΔmalT220, purified (Ni Sepharose, gel filtration)) MLIPLKLSRPVRLDHTVVRERLLAKLSGANNFRLALITSPAGYGKTTLISQWAAGKNDIGWYSLDEGDNQQERFASYLIAAVQQATNGHCAICETMAQKRQYASLTSLFAQLFIELAEWHSPLYLVIDDYHLITNPVIHESMRFFIRHQPENLTLVVLSRNLPQLGIANLRVRDQLLEIGSQQLAFTHQEAKQFFDCRLSSPIEAAESSRICDDVSGWATALQLIALSARQNTHSAHKSARRLAGINASHLSDYLVDEVLDNVDLATRHFLLKSAILRSMNDALITRVTGEENGQMRLEEIERQGLFLQRMDDTGEWFCYHPLFGNFLRQRCQWELAAELPEIHRAAAESWMAQGFPSEAIHHALAAGDALMLRDILLNHAWSLFNHSELSLLEESLKALPWDSLLENPQLVLLQAWLMQSQHRYGEVNTLLARAEHEIKDIREDTMHAEFNALRAQVAINDGNPDEAERLAKLALEELPPGWFYSRIVATSVLGEVLHCKGELTRSLALMQQTEQMARQHDVWHYALWSLIQQSEILFAQGFLQTAWETQEKAFQLINEQHLEQLPMHEFLVRIRAQLLWAWARLDEAEASARSGIEVLSSYQPQQQLQCLAMLIQCSLARGDLDNARSQLNRLENLLGNGKYHSDWISNANKVRVIYWQMTGDKAAAANWLRHTAKPEFANNHFLQGQWRNIARAQILLGEFEPAEIVLEELNENARSLRLMSDLNRNLLLLNQLYWQAGRKSDAQRVLLDALKLANRTGFISHFVIEGEAMAQQLRQLIQLNTLPELEQHRAQRILREINQHHRHKFAHFDENFVERLLNHPEVPELIRTSPLTQREWQVLGLIYSGYSNEQIAGELEVAATTIKTHIRNLYQKLGVAHRQDAVQHAQQLLKMMGYGV",binds
6,"MalT-S8A, N-terminally His-tagged (natural protein, Escherichia coli, UniProt P06993 1-901, looked up, MalT of Escherichia coli, variant of plasmid pOM206 made by site-directed mutagenesis; source: E. coli BL21 (DE3) ΔmalT220, purified (Ni Sepharose, gel filtration)) MLIPSKLARPVRLDHTVVRERLLAKLSGANNFRLALITSPAGYGKTTLISQWAAGKNDIGWYSLDEGDNQQERFASYLIAAVQQATNGHCAICETMAQKRQYASLTSLFAQLFIELAEWHSPLYLVIDDYHLITNPVIHESMRFFIRHQPENLTLVVLSRNLPQLGIANLRVRDQLLEIGSQQLAFTHQEAKQFFDCRLSSPIEAAESSRICDDVSGWATALQLIALSARQNTHSAHKSARRLAGINASHLSDYLVDEVLDNVDLATRHFLLKSAILRSMNDALITRVTGEENGQMRLEEIERQGLFLQRMDDTGEWFCYHPLFGNFLRQRCQWELAAELPEIHRAAAESWMAQGFPSEAIHHALAAGDALMLRDILLNHAWSLFNHSELSLLEESLKALPWDSLLENPQLVLLQAWLMQSQHRYGEVNTLLARAEHEIKDIREDTMHAEFNALRAQVAINDGNPDEAERLAKLALEELPPGWFYSRIVATSVLGEVLHCKGELTRSLALMQQTEQMARQHDVWHYALWSLIQQSEILFAQGFLQTAWETQEKAFQLINEQHLEQLPMHEFLVRIRAQLLWAWARLDEAEASARSGIEVLSSYQPQQQLQCLAMLIQCSLARGDLDNARSQLNRLENLLGNGKYHSDWISNANKVRVIYWQMTGDKAAAANWLRHTAKPEFANNHFLQGQWRNIARAQILLGEFEPAEIVLEELNENARSLRLMSDLNRNLLLLNQLYWQAGRKSDAQRVLLDALKLANRTGFISHFVIEGEAMAQQLRQLIQLNTLPELEQHRAQRILREINQHHRHKFAHFDENFVERLLNHPEVPELIRTSPLTQREWQVLGLIYSGYSNEQIAGELEVAATTIKTHIRNLYQKLGVAHRQDAVQHAQQLLKMMGYGV",binds
